The source of these data is PMC13198613.

What is called stoichiometry N is the number of molecules, sites or subunits per partner or assembly.

The assay has as its target N1-MPP (recombinant neuraminidase: N1 globular head domain from A/Michigan/45/2015 (H1N1) fused to the measles virus phosphoprotein tetramerization domain, with hexahistidine tag) (measles virus | influenza A virus A/Michigan/45/2015 (H1N1)). Kind of assay: SEC; […], pH 7.5, 0.4 mL/min, room temperature; […]. (In gel filtration, larger molecules generally elute earlier.)

With “N1-MPP (recombinant neuraminidase: N1 globular head domain from A/Michigan/45/2015 (H1N1) fused to the measles virus phosphoprotein tetramerization domain, with hexahistidine tag) (enzyme)”, the stoichiometry N came to 4.
